Results on one protein are retold here after paper PMC4877568, “Structure-based site-directed photo-crosslinking analyses of multimeric cell-adhesive interactions of voltage-gated sodium channel β subunits” (Scientific Reports, 2016).

This data set concerns the molecule itself. The experiment in a line: crystal structure; X-ray crystallography of β4ex; antiparallel contacts between β4ex molecules in the crystal lattice; crystals from 30% (w/v) PEG 1500, sitting drop, 20 °C.

B1: mouse β4 subunit extracellular domain fragment (domain or fragment, UniProt Q7M729 30-160, looked up)
chain: SLEVSVGKATTIYAINGSSILLPCTFSSCYGFENLYFKWSYNNSETSRILIDGIVKNDKSDPKVRVKDDDRITLEGSTKEKTNNISILLSDLEFSDTGRYTCFVRNPKEKDLNNSATIFLQVVDKLEKVDN
notes: voltage-gated sodium channel β4 subunit, mouse, residues 30-160; amino acid numbering starts from the initiator methionine; His tag removed by TEV protease; contains all three Cys residues; also called β4ex; β4 extracellular domain; source: Escherichia coli cell-free method, purified (HisTrap, TEV cleavage, Mono Q, Superdex 75); not shown: histidine tag, N-terminal, cleaved
Consider B1, for which the binding result is listed as “binds”.
